Experimental findings from US20230303685A1 (ELECTRA THERAPEUTICS, published 2023) are described below.

Experiment [1] deals with T1, cynomolgus monkey SIRPα extracellular domain, monomeric (cynomolgus monkey, UniProt A0A2K5VYQ9 31-372).
T1 construct: extracellular domain; also called Cyno SIRPα
The experiment is described as follows: SPR (Biacore); antibody captured by anti-IgG on chip, monomeric SIRPα extracellular domain as analyte, 1:1 model. On the procedure: (§1) Selected antibodies were tested for their affinities to two hSIRPα variants (V1 and V2), and to cynomolgus monkey (herein referred to as “cyno”) SIRPα. The affinities of these SIRP antibodies were determined using surface plasmon resonance. The SIRP antibodies were flowed onto a chip and captured by an anti-mouse IgG or an anti-human IgG covalently coupled to the surface of the chip. A three-point titration of the extracellular binding domain of hSIRPα was performed per the manufacturer's recommended protocols.
For orientation: SPR reads the build-up and loss of mass on a sensor chip optically.

Experiment [2] concerns the target T2, human SIRPα V2 extracellular domain, monomeric (human, UniProt P78324 31-370).
T2 construct: also called hSIRPα V2
The description is as above. On the procedure:
as §1

In experiment [3] the target is T3, human SIRPα V1 extracellular domain, monomeric (human, UniProt P78324 31-373).
T3 construct: also called hSIRPα V1
The description is as above. On the procedure: as §1

The target of experiment [4] is T4, Human SIRPγ CHO.
T4 construct: also called human SIRPγ on CHO cells
T4 chain: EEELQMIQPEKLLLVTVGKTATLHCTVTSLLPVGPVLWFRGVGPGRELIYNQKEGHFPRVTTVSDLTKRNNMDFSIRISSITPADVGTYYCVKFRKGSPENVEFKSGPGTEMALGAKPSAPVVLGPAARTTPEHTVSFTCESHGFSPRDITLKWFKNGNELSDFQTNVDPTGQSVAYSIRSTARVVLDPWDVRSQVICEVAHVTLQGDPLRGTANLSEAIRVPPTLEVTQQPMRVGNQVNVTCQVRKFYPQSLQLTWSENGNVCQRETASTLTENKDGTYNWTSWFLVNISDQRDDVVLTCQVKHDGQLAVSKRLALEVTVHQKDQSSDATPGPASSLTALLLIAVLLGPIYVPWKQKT
The experiment in a line: flow cytometry, stably transfected CHO cells, antibody titrated, labelled anti-human IgG, MFI. On the procedure:
(§2) Selected antibodies were tested for binding to stably transfected human SIRPα, SIRPβ1 (co-transfected with DAP12), or SIRPγ Chinese hamster ovary (CHO) cells via flow cytometry. A titration of SIRP antibodies was added to the cells and detected using a fluorescently labelled secondary antibody. Graph depicts the median fluorescence intensity (MFI) at each concentration.
(A flow cytometer gives signals particle by particle.)

Experiment [5] deals with T5, Human SIRPβ1/DAP12 CHO.
T5 construct: also called human SIRPβ1 on CHO cells co-transfected with DAP12; copies: 1 + 2
Described as above. The procedure:
as §2

The target of experiment [6] is T1, cynomolgus monkey SIRPα extracellular …. The experiment is described as follows: ELISA, extracellular domain coated at 2 µg/mL, purified antibody titrated, anti-human IgG, chemiluminescence.
The target in the next experiment is T6, Cynomolgus Monkey SIRPβ1 (Macaca fascicularis).
T6 construct: extracellular domain; also called cyno SIRPβ1 extracellular domain, plate-coated
The experiment is described as above.

Experiment [7] concerns the target T7, Human SIRPβ1.
T7 construct: also called human SIRPβ1 extracellular domain, plate-coated
T7 chain: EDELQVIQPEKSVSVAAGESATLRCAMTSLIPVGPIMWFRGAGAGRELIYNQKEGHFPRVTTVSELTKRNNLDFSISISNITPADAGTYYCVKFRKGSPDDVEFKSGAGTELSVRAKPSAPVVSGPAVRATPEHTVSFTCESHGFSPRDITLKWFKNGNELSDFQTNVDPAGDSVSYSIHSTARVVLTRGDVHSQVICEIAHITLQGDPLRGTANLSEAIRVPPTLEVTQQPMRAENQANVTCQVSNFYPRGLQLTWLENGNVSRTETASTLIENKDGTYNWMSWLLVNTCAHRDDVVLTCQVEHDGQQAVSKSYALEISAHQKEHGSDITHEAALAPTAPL
Described as above.

The target in experiment [8] is T8, Human SIRPγ.
T8 construct: also called human SIRPγ extracellular domain, plate-coated
T8 chain: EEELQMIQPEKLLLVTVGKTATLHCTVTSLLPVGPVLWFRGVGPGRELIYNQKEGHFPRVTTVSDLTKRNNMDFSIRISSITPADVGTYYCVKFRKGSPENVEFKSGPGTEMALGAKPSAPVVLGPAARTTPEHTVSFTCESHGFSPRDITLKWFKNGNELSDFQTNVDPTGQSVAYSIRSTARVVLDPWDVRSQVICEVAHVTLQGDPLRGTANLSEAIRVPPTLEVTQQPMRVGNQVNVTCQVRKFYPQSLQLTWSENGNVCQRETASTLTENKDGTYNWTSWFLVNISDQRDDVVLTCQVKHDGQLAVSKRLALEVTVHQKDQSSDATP
Described as above.

Experiment [9] deals with T9, Human SIRPγ conjugated to an Fc region (human).
T9 construct: also called SIRPγ-Fc; SIRP-Fc; not shown: Fc region
The experiment is described as follows: BLI blocking; 200 nM antibody pre-incubated with 20 nM SIRPγ-Fc, binding to immobilised CD47-His (competitor), % of response of SIRPγ-Fc alone.

For experiment [10], the target named is T8, Human SIRPγ. The experiment is described as follows: ELISA, extracellular domain coated at 1 µg/mL, purified antibody titrated, anti-human IgG, chemiluminescence. The procedure:
(§3) Select SIRP antibodies were purified by Protein G from hybridoma supernatants and analyzed in a titration via ELISA. Briefly, 1 μg/mL of extracellular domain SIRPα was coated onto high protein-binding plates and blocked. Purified antibodies were added in a titration to the coated plates. The antibodies were detected by an anti-rat IgG antibody and a chemiluminescent substrate.
(§4) FIGS. 3A-3C show binding curves of SIRP antibodies and two isotype controls with human Fc to human SIRPα V1, human SIRPβ1, human SIRPγ and cynomolgus monkey SIRPα by ELISA. […] Isotype control 1 was an unrelated human IgG1 antibody with irrelevant CDRs. Isotype control 2 was the same as isotype control 1 but contained the same amino acid substitutions in the Fc region as some of the selected SIRP antibodies for increased FcγR binding (referring to Table 11). DNA was transiently transfected into CHO cells for 7 days. Antibodies were purified by Protein A from cell supernatants and analyzed in a titration via ELISA as previously described in FIGS. 2A-2B using an anti-human IgG antibody as the detection antibody.
A general note: An ELISA detects its analyte on a solid surface through an enzyme-linked reagent.

Experiment [11] concerns the target T3, human SIRPα V1 extracellular domain, …. The experiment is described as follows: ELISA, extracellular domain coated at 2 µg/mL, purified antibody titrated, anti-human IgG, chemiluminescence.
Another experiment has as its target T10, Cynomolgus Monkey SIRPγ (Macaca fascicularis).
T10 construct: extracellular domain; also called cyno SIRPγ extracellular domain, plate-coated
Described as above.

The target in another experiment is T11, human SIRPγ-His monomer (human).
T11 construct: 'SIRP-His monomer protein' of the Octet assay; also called SIRP-His; not shown: His tag
The experiment in a line: BLI (Octet); antibody on anti-mouse IgG capture tip, SIRP-His monomer; no dissociation seen in 600 s. On the procedure:
(§5) Select SIRP antibodies were tested for their affinities to human SIRPα, SIRPβ1, and SIRPγ using a biolayer interferometry (BLI) Octet system (Pall ForteBio). Each SIRP antibody with rat or mouse Fc was immobilized on a biosensor tip by an anti-mouse IgG capture (AMC). Antibodies with human Fc were digested with gingipain K enzyme to yield monomeric F(ab′), biotinylated, then coated onto streptavidin biosensors. […] The biosensors were then exposed to wash buffer to measure off-rate kinetics. The resulting kinetic data were analyzed and fitted using a 1:1 binding model with kₒₙ and kdis fitted separately at each SIRP-His protein concentration. KD affinities were calculated as kdis to kₒₙ ratio at each concentration of SIRP-His and averaged.

Experiment [12] addresses T12, human SIRPα V1-His monomer (human, UniProt P78324 31-373, limits assumed).
T12 construct: 'SIRP-His monomer protein' of the Octet assay; also called SIRP-His; not shown: His tag
The experiment in a line: BLI (Octet); antibody on anti-mouse IgG capture tip, SIRP-His monomer at 100, 33.3, 11.1 nM, 1:1 fit, mean KD. The procedure: as §5

The target in experiment [13] is T3, human SIRPα V1 extracellular domain, …. The experiment is described as follows: ELISA, extracellular domain coated at 1 µg/mL, purified antibody titrated, anti-human IgG, chemiluminescence. On the procedure:
as §3, §4

In experiment [14] the target is T8, Human SIRPγ. The experiment is described as follows: ELISA, extracellular domain coated at 2 µg/mL, purified antibody titrated, anti-rat or anti-mouse IgG, chemiluminescence. The procedure:
(§6) Select SIRP antibodies were purified by Protein G from hybridoma supernatants and analyzed in a titration via ELISA. Briefly, 2 μg/mL of extracellular domain of each of the SIRPs was coated onto high protein-binding plates and blocked. Purified antibodies were added in a titration to the coated plates. The antibodies were detected by an anti-rat IgG or an anti-mouse IgG antibody and a chemiluminescent substrate.

Experiment [15] has as its target T7, Human SIRPβ1. The experiment is described as above. The procedure:
as §6

Experiment [16] deals with T4, Human SIRPγ CHO. The experiment in a line: flow cytometry, stably transfected CHO cells, antibody titrated, labelled anti-rat or anti-mouse IgG, MFI. The procedure: as §2
Experiment [17] concerns the target T5, Human SIRPβ1/DAP12 CHO. Described as above. On the procedure:
as §2

Where a chain is given by its changes, count along the chain named.

Broadly, the Kd is the concentration at which binding is half-saturated. One may read the EC50 (read off the curve) as the midpoint of the concentration-response curve.

T5 sequence (DAP12, as listed by the source limits assumed): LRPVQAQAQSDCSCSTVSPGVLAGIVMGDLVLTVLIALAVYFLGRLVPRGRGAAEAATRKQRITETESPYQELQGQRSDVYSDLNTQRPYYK

B1: Antibody 28 (antibody, V domains shown)
VH: QVQLQESGPGLVKPSGTLSLTCAVSGGSISSSNWWSWVRQPPGKGLEWIGEIYHSGSTNYNPSLKSRVTISVDKSKNQFSLKLSSVTAADTAVYYCARRGIWFGVGPWGQGTLVTVSS
VL: DIVMTQSPLSLPVTPGEPASISCRSSQSLLHGNGFNYLDWYLQKPGQSPQLLIYLGSNRASGVPDRFTGSGSGTDFTLKISRVEAEDVGVYYCMQGLQTPRTFGQGTKVEIK
B1: the dissociation constant Kd in experiment [1] was determined as 361 nM; in experiment [2], 373 nM; in [3], 311 nM. Also, the concentration for a half-maximal effect (EC50 (read off the curve)) was roughly 0.3 mg/L in the experiment with Human SIRPγ CHO [4]; roughly 0.4 mg/L with Human SIRPβ1/DAP12 CHO [5]; roughly 0.04 mg/L in [6]; roughly 0.04 mg/L in the experiment with Cynomolgus Monkey SIRPβ1; roughly 0.04 mg/L in the experiment with Human SIRPβ1 [7]; roughly 0.03 mg/L with Human SIRPγ [8]. Further, the concentration giving a half-maximal response (EC50 (read off the curve)) with Human SIRPγ [10] is roughly 0.04 mg/L. In [9], the “SIRPγ-CD47 Response (%)” value turned out to be 144%.

B2: Antibody 32 (antibody, V domains shown)
VH: QVQLQESGPGLVKPSGTLSLTCAVSGGSISSSNWWSWVRQPPGKGLEWIGEIYHSGNTNYNPSLKSRVTISVDKSKNQFSLKLSSVTAADTAVYYCAREGIEGYYFYYGMDVWGQGTTVTVSS
VL: DIQLTQSPSFLSASVGDRVTITCRASQGISGYLDWYQQKPGKAPKLLIYAASTLQRGVPSRFSGSGSGTDFNLTISSLQPEDFATYYCQQFTSDLITFGQGTRLEIK
notes: same variable regions as Antibodies 3 and 24
As to B2, the “EC50 (read off the curve)” value in the experiment with Human SIRPγ CHO [4] is roughly 0.2 mg/L; with Human SIRPβ1/DAP12 CHO [5] it was roughly 0.3 mg/L; with Human SIRPβ1 [7], roughly 0.03 mg/L; in [11], roughly 0.03 mg/L; in the experiment with Human SIRPγ [8], roughly 0.02 mg/L; in the experiment with Cynomolgus Monkey SIRPγ, roughly 0.03 mg/L.

B3: Antibody 13 (antibody, V domains shown)
VH: EVQMLESGGGLVQPGGSLRLSCAASGFTFSSYAMSWVRQAPGKGLEWVSAISGSGSSTHYADSVKGRFTISRDNSKNTLYLQMNSLRAEDTAVYYCAAYSGSYYYYGMDVWGQGTTVTVSS
VL: EIVMTQSPATLSVSPGERATLSCRASQSVSRNLAWYQQKSGQAPRLLIYGASTRATGIPARFSGSGSGTEFTLTISSLQSEDFAGYYCQQYNNWPYTFGQGTKLEIK
notes: Human variable region, rat IgG2b Fc; from hybridoma
On to B3, for which the dissociation constant Kd was 16.7 nM in experiment [1], 12.6 nM in [3], less than 0.001 nM with human SIRPγ-His monomer and 0.922 nM in experiment [12]. Further, the “SIRPγ-CD47 Response (%)” value in experiment [9] is 111%.

B4: Antibody 29 (antibody, V domains shown)
VH: B3 VH
VL: B3 VL
As to B4, the results for the Kd in [1], in [2] and in experiment [3] were 11.1 nM, 10.3 nM and 8.32 nM, respectively. In addition, the concentration for a half-maximal effect (EC50 (read off the curve)) in the experiment with Human SIRPγ [10] was roughly 0.05 mg/L; in experiment [13] it was roughly 0.06 mg/L.

B5: Antibody 12 (antibody, V domains shown)
VH: B3 VH with M4V
VL: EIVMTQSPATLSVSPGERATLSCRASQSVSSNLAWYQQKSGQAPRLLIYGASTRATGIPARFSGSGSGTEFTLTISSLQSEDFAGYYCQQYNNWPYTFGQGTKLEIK
notes: as for B3
For B5, the binding result with Human SIRPγ [14], in the experiment with Human SIRPβ1 [15], with Human SIRPγ CHO [16] and with Human SIRPβ1/DAP12 CHO [17] was “binds” throughout. Moreover, the equilibrium dissociation constant (Kd) is less than 0.001 nM with human SIRPγ-His monomer and 5.31 nM in [12]. The “SIRPγ-CD47 Response (%)” value in experiment [9] stood at 120%.
